Experimental data as given in patent US20240180962A1.

Target: CD20 on ARH-77 tumor cells (CD20+ plasma cell leukemia cell line, ATCC CRL-1621) (human) (UniProt P11836)
Experiment: cell-based or functional assay

Chain of UniProt P11836 (P11836 whole entry): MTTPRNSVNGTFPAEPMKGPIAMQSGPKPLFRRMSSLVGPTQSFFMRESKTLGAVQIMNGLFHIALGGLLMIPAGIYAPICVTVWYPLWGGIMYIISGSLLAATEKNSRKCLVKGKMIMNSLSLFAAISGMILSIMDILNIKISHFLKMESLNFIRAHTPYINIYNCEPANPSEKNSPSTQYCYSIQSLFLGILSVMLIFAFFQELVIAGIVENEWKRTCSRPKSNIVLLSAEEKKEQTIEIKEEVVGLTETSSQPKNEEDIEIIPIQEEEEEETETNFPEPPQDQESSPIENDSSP

Substance: obinutuzumab (antibody)
- AB-101 killing activity (ADCC, 4 hour caspase assay against ARH-77 cells): 66 fold
